US20190201542A1 (AbbVie / Abbott, published 2019)

B1: SC16.111 (antibody, V domains shown)
VH: EVQLQQSGPELEKPGASVKISCKASGYSFTGYNMNWVKQSNGKSLEWIGNIDPYYGGSSYKQKFEGKATLTVDKSSSTAYMQLKSLTSEDSAVYYCARGGSNFFDYWGQGTTLTVSS
VL: DIQMTQSPASLAASVGETVTITCRASENIYYSLAWYQQKQGKSPQLLIYNANSLEDGVPSRFSGSGSGTQYSMKINSMQPEDTATYFCKQTYDVPLTFGAGTKLELK
notes: murine mAb
B2: SC16.109 (antibody, V domains shown)
VL: QIVLTQSPAIMSASPGEKVTMTCSASSSVSYMYWYQQKPGSSPRLLIYDTSNLASGVPVRFSGSGSGTSFSLTISRMEAEDTATYYCQEWSGNPLTFGDGTKLELK
V domain: QIQLVQSGPELKKPGETVKISCKASGYTFTNYGMNWVKQAPGKGLKWMGWINTYTGEPAYADDFKGRFAFSLETSASAAYLQINNLKNEDTATFFCANMRPTRGFAYWGQGTLGTVSA
notes: murine mAb
B3: SC16.118 (antibody, V domains shown)
VH: EVQLQQSGPDLVKPGASVKISCKASGYSFTGYYMHWVKQSHGKSLEWIGRVNPNNGGTSYNQKFKGKAILTADKSSSTAYMELRSLTSEDSAVYYCARGSYDYAEGWGQGTLVTVSA
VL: DIVLTQSPASLAVSLGQRATISCKASQSVDYDGDSYLTWYQQKPGQPPKLLIYAASNLESGIPARFSGSGSGTDFTLNIHPVEEEDAATYYCQQSNEDPYTFGGGTKLEIK
notes: murine mAb
B4: SC16.105 (antibody, V domains shown)
VH: QVQLQQPGAELVKPGASVKLSCKASGYTFTSYWMHWVKQRPGQGLEWIGVINPSNGRTNYNEKFKSKATLTVDKSSSTAYMQLSSLTSEDSAVYYCARRRELGTLYAMDYWGQGTSVTVSS
VL: DIVMTQSHKFMSTSVGDRVSITCKASQDVGTAVAWYQQKPGQSPKLLIYWASIRHTGVPDRFTGSGSGTDFTLTISNVQSEDLADYFCQQYSSYPLTFGAGTKLELK
notes: murine mAb
B5: SC16.106 (antibody, V domains shown)
VH: QVQLKQSGPGLVAPSQSLFITCTVSGFSLTSYEINWVRQPPGKGLEWLGVIWTGGSTNYNSALISRLSISKDNSKSLVFLKMNSLQTDDTAIYYCVRGVYAMDYWGQGTSVTVSS
VL: DIKMTQSPSSMYASLGERVTITCKASQDINSYLSWFQQKPGKSPKTLIYRANRLVDGVPSRFSGSGSGQDYSLTISSLEYEDMGIYYCLQYDEFPFTFGSGTKLEIK
notes: murine mAb
B6: SC16.101 (antibody, V domains shown)
VL: QIVLTQSPAIMSASLGERVTMTCTASSSVSSSYLHWYQQKPGSSPKLWIYSTSNLASGVPARFSGSESGTSYSLTISNMEAEDAATYYCHQYHRSPFTFGSGTKLEIK
V domain: QVTLKESGPGILQPSQTLSLTCSFSGFSLSTSGMGVGWIRQPSGKGLEWLAHIWWDDVKRYNPALKSRLTISKDASSSQVFLKIASVDTAETATYYCAHILDRAYYFDYWGQGTTLTVTS
notes: murine mAb
B7: SC16.10 (antibody, V domains shown)
VH: QVTLKESGPGILQSSQTLSLTCSFSGFSLSTSGMGVGWIRQPSGKGLEWLAHIWWDDVKRYNPVLKSRLTISKDTSSSQVFLKIASVDTADTATYYCARLVDDLYYFDYWGQGTTLTVSS
VL: QIVLTQSPAIMSASLGERVTMTCTASSSVSSSYLHWYQQKPGSSPKLWIYSTSNLASGVPTRFSGSGSGTSYSLTISSMEAEDAATYYCHQYHRSPFTFGSGTKLEIK
notes: murine mAb
B8: SC16.88 (antibody, V domains shown)
VH: QVQLQQSGAELARPGASVKLSCKASGYTCTSYWMQWVKQRPGQGLEWIGAIYPGDGDTRYTQKFKGKATLTADKSSSTAYMQLSSLASEDSAVYYCARGRRTEAWFAYWGQGTLVTVSA
VL: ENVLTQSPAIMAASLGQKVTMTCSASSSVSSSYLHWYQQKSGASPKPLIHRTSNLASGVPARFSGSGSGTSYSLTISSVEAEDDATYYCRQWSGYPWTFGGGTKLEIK
notes: murine mAb
B9: SC16.110 (antibody, V domains shown)
VH: EVQLQQSGPGLVRTGASVKISCKASGYSFTGYYMHWVKQSHGKSLEWIGYISCYNGATTYNQNFKGKATFIVDTSSSTAYMQFNSLTSEDSAVYYCARSDGGHAMDYWGQGTSVTVSS
VL: NIVMTQTPKFLLVSAGDRVTITCKASQSVSNDVAWYQQKPGQSPKLLIYYASNRYTGVPDRFTGSGYGTDFTFTISTVQAEDLAVYFCQQDYSSPPTFGGGTKLEIK
notes: murine mAb
B10: SC16.84 (antibody, V domains shown)
VH: EVQLQQSGPELVKPGASMKISCKASGYSFTGYTMNWVKQSHGKNLEWIGLINPYNGGTTYNQKFKGKATLTVDKSSSTAYMELLSLTSEDSAVYYCALGYYGNYRRYFDVWGAGTTVTVSS
VL: DIQMTQSPSSLSASLGGKVTITCKASQDIKKYIAWYQHKPGKGPRLLIHYTSTLEPGIPSRFSGSGSGRDYSFSISNLEPEDIATYYCLQYDILWTFGGGTKLEIK
notes: murine mAb
B11: SC16.103 (antibody, V domains shown)
VH: QVTLKESGPGILKPSQTLSLTCSFSGFSLSTSGMGIGWIRQPSGKGLEWLAHIWWDDDKYYNPSLKSQLTISKDSSRNQVFLKITSVDTADTATYYCARRGTAYYFDYWGQGTTLTVSS
VL: DIVLTQSPASLAVSLGQRATISCRASKSVSTSGYSYMHWYQQKPGQPPKLLIYLASNLESGVPARFSGSGSGTDFTLNIHPVEEEDAATYYCQHSRELPLTFGAGTKLELK
notes: murine mAb
B12: SC16.107 (antibody, V domains shown)
VH: EVQLQQSGPELVKPGASVKMSCKASGYTFTNYVMHWVKQKPGQGLEWIGYINPYNDGTKYNEKFKGKATLTSDKSSTTAYMALSSLTSEDSAVYYCAVAYYSNWGFAYWGQGTLVTVSA
VL: DIVMTQSHKFMSTSVGDRVSITCKASQDVNTAVGWYQQKPGQSPKLLIYSASYRYTGVPDRFTGSGSGTDFTFTISSVQAEDLAVYYCQQHYSSPYTFGGGTKVEIK
notes: murine mAb
B13: SC16.139 (antibody, V domains shown)
VH: EVQLQQSGPELVKPGASVKMSCKASGYTFTNYVMHWVKQKPGQGLEWIGYINPYNDGTKYNEKFKGKATLTSDKSSTTAYMALSSLTSEDSAVYYCAVAYYSNWGFAYWGQGTLVTVSA
VL: DIVMTQSHKFMSTSVGDRVSITCKASQDVNTAVGWYQQKPGQSPKLLIYSASYRYTGVPDRFTGSGSGTDFTFTISSVQAEDLAVYYCQQHYSSPYTFGGGTKLEIK
notes: murine mAb
B14: SC16.117 (antibody, V domains shown)
VH: QVQLKESGPGLVAPSQSLSITCTVSGFSLTNYGVHWVRQPPGKGLEWLGVIWAGGITNYNSALMSRLSISEDNSKSQVFLKMNSLQTDDTAMYYCARNLGPYAMDYWGQGTSVTVSS
VL: DIQMNQSPSSLSASLGDTITITCHVSQNINVWLSWYQQKPGNIPKLLIQKASNLHTGVPSRFSGSGSGTGFTLTISSLQPEDIATYYCQQGQSYPFTFGSGTKLEIK
notes: murine mAb
B15: SC16.116 (antibody, V domains shown)
VH: QVQLKQSGPGRVQPSQSLSITCTVSGFSLTSNGVHWVRQSPGKGLEWLGVLWSGGSTDYNAAFISRLSISKDNYKSQVFFKMNSLQANDTAIYYCARNNNRYGAMDYWGQGTSVTVSS
VL: DIVMTQSPSSLTVTAGEKVTMSCTSSQSLLTSGNQKNYLTWYQQKPGQPPKLLIYWASTRESGVPDRFTGSGSGTDFTLTISSLQAEDLAVYYCQNDYSLTFGAGTKLELK
notes: murine mAb
B16: SC16.104 (antibody, V domains shown)
VH: QVQLKESGPDLVQPSQTLSLTCTVSGFSLTFYGVHWVRQPPGKGLEWVGTMGWDDKKYYNSALKSRLSISRDTSKNQVFLKLSSLQTEDTAMYYCTRGGTGFDYWGQGTTLTVSS
VL: QIVLSQSPAILSASPGEKVTMTCRASSSVSYIHWYRQKPGSSPKPWIYATSNLASGVPARFSGSGSGTSYSLTISRVEAEDAATYYCQQWSSNPPTFGAGTKLELK
notes: murine mAb
B17: SC16.114 (antibody, V domains shown)
VH: EVQLQQSGAELVKPGASVKLSCTASGFNIKDTYIHWVKQRPEQGLEWIGRIDPANGNTKYDPKFQGKATITPDTSSNTAYLQLSSLTSEDTAVYYCARSWRNYGSSFWYFDVWGAGTTVTVSS
VL: QIVLSQSPAILSASPGEKVTMTCRASSSVSYMHWYQQKPGSSPKPWIYATSNLASGVPARFSGSGSGTSYSLTISRVEAEDAATYYCQQWSSNPYTFGGGTKLEIK
notes: murine mAb
B18: SC16.113 (antibody, V domains shown)
VH: DVKLVESGGGLVKPGGSLKLSCAASGFTFSSYTMSWVRQTPEKRLEWVATISSGGSYPYYPDSVKGRFTISRDNAKNTLYLQMSSLKSEDTAMYYCTRDVYDGYSYWGQGTTLTVSS
VL: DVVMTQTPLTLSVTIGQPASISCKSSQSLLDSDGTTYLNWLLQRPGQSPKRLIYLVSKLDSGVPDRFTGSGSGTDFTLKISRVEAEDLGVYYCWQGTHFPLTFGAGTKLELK
notes: murine mAb
B19: SC16.115 (antibody, V domains shown)
VH: DVKLVESGGGLVKPGGSLKLSCAASGFTFSSYTMSWVRQTPEKRLEWVATISSGGSYPYYPDSVKGRFTISRDNAKNTLYLQMSSLKSEDTAMYYCTRDVYDGYSYWGQGTTLTVSS
VL: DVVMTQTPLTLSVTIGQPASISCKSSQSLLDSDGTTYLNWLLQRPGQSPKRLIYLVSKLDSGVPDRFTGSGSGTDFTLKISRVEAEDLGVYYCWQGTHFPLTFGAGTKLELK
notes: murine mAb
B20: SC16.8 (antibody, V domains shown)
VH: QAQLQQSGAELVRPGTSVKVSCKASGYAFTNYLIEWVKQRPGQGLEWIGVINPGTGGTNYNENFKGKATLTADKSSSTAYMQLSSLTSDDSAVYFCARSPYDYHEGAMDYWGQGTSVTVSS
VL: EIQMTQSPSSMSASLGDRITITCQATQDIVKNLNWYQQKPGKPPSFLIYYAIELAEGVPSRFSGSGSGSDYSLTISNLESEDFADYYCLQFYEFPFTFGAGTKLELK
notes: murine mAb

These binders were tested against T1, human DLL3 (human, UniProt Q9NYJ7 27-492, limits assumed) (assay: screen on immobilized hDLL3 or h293-hDLL3 cells).
T1 construct: also called hDLL3; DLL3 protein
T1 sequence: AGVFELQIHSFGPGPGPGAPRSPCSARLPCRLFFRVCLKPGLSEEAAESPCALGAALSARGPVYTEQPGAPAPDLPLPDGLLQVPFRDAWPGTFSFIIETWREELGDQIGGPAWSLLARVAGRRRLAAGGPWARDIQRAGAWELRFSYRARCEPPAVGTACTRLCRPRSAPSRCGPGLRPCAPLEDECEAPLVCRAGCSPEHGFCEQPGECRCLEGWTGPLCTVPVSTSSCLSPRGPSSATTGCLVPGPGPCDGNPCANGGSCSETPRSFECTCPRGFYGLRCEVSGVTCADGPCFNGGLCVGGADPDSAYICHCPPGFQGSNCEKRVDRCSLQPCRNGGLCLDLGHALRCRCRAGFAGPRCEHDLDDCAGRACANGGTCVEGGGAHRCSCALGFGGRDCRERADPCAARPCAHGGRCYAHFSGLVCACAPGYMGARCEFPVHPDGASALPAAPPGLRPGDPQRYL
Summary of the method: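 Solid-phase ELISA on DLL3-His (0.5 μg/ml coating), developed with HRP anti-mouse IgG and TMB and read at OD 450, was one screen for supernatants of single-cell hybridomas from human DLL3-immunized mice taken after 10 days in culture. Flow-cytometry binding counted as positive only above the control.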

Binding result, binds:
B1
B2
B3
B4
B5
B6
B7
B8
B9
B10
B11
B12
B13
B14
B15
B16
B17
B18
B19
B20
